Measured values taken from US20170362329A1 (PELICAN THERAPEUTICS, published 2017).
Like-named read-outs stand apart in the source and are kept apart here. One block for each molecule: values may come before it.

How the values were obtained:
[1] = target: human TNFRSF25 (expressed on P815 cells) (human) (UniProt Q93038); assay: cell-based or functional assay
[2] = target: human TNFRSF25 (expressed on P815 cells) (human), Q93038; assay: cell-based or functional assay
WBP330.hProl.ECD.hF = target: T1, WBP330.hProl.ECD.hF (human, UniProt Q93038 25-199); assay: SPR (ProteOn), TNFRSF25 ECD fusion as ligand, antibody as analyte, bivalent analyte model
T1 construct: extracellular domain; also called human TNFRSF25 (SPR ligand)
T1 sequence (looked up): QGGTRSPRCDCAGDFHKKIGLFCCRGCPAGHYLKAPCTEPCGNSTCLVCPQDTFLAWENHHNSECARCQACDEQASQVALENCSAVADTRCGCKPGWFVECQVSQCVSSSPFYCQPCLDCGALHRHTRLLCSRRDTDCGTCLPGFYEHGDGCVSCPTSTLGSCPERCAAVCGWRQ
Experimental: Affinity of the indicated humanized TNFRSF25 antibodies was determined by surface plasmon resonance (SPR) using the ProteOn method (FIG. 7 and TABLE 3).

human TNFRSF25-Fc = target: T2, human TNFRSF25-Fc (human, UniProt Q93038 25-199, limits assumed); assay: ELISA, binding of PTX-25 to human TNFRSF25-Fc, OD 450 nm
T2 construct: also called human TNFRSF25 fusion protein; not shown: Fc part
T2 sequence (looked up): T1 sequence (looked up)

[3] = target: human TNFRSF25 (expressed on P815 cells) (human) (UniProt Q93038); assay: cell-based or functional assay; remark: listed apart in the source
[4] = target: human TNFRSF25 (expressed on P815 cells) (human) (UniProt Q93038); assay: flow cytometry on P815 cells expressing human TNFRSF25
[5] = target: human TNFRSF25 (expressed on P815 cells) (human) (UniProt Q93038); assay: flow cytometry on P815 cells expressing human TNFRSF25 (mean fluorescence intensity)

EC50 of induced caspase activity [1]: 0.283 µg/mL
Molecule: hTL1A-hFc chimera (from UniProt O95150 72-251) (Fc fusion)

EC50 (nM), caspase activation in P815 cells expressing human TNFRSF25 [2]: 71.4 nM
EC50 of induced caspase activity [2]: 0.121 µg/mL
Kd (WBP330.hProl.ECD.hF): 58.1 nM
koff (WBP330.hProl.ECD.hF): 0.00576 s⁻¹
kon (WBP330.hProl.ECD.hF): 99000 M⁻¹ s⁻¹
B1: WBP330.cAb1.hIgG1 (35783) (antibody, V domains shown)
VH: EVQLVESGGGLSQPGNSLQLSCEASGFTFSNHDLNWVRQAPGKGLEWVAYISSASGLISYADAVRGRFTISRDNAKNSLFLQMNNLKSEDTAMYYCARDPPYSGLYALDFWGQGTQVTVSS
VL: QPVLTQSPSASASLSGSVKLTCTLSSELSSYTIVWYQQRPDKAPKYVMYLKSDGSHSKGDGIPDRFSGSSSGAHRYLSISNVQSEDDATYFCGAGYTLAGQYGWVFGSGTKVTVL
notes: also called cAb1 (35783); chimeric antibody

EC50 (read off the curve) (human TNFRSF25-Fc): ~0.04 µg/mL
IC50 (human TNFRSF25-Fc): 5.17 nM
B2: PTX-25 (human TNFRSF25-specific monoclonal antibody, pre-humanized parental) (antibody, V domains shown)
VH: B1 VH
VL: B1 VL
notes: also called Pre-humanized Parental PTX-25; human TNFRSF25-specific mAb

EC50 (nM), caspase activation in P815 cells expressing human TNFRSF25 [3]: 19.6 nM
EC50 of induced caspase activity [3]: 0.0192 µg/mL
Kd [4]: 73.5 nM
Bmax [5]: 246
Kd (WBP330.hProl.ECD.hF): 254 nM
koff (WBP330.hProl.ECD.hF): 0.0252 s⁻¹
kon (WBP330.hProl.ECD.hF): 99000 M⁻¹ s⁻¹
B3: WBP330BMK1 (antibody, V domains shown)
VH: B1 VH
VL: B1 VL
